This is an account of results in article PMC11894533, “A virulent milRNA of Fusarium oxysporum f. sp. cubense impairs plant resistance by targeting banana AP2 transcription factor coding gene MaPTI6L”.

For the data set, the target named is MaPTI6L (Musa acuminata (Cavendish group cv. …, UniProt A0A804I776 1-300)). Nature of the data set: EMSA; EMSA Kit (Beyotime) protocol; buffer, salt, pH and temperature not stated. As to conditions: protein: recombinant; tags: MBP; label: FAM.
Chain of MaPTI6L (Musa acuminata (A0A804I776 entry or part of it): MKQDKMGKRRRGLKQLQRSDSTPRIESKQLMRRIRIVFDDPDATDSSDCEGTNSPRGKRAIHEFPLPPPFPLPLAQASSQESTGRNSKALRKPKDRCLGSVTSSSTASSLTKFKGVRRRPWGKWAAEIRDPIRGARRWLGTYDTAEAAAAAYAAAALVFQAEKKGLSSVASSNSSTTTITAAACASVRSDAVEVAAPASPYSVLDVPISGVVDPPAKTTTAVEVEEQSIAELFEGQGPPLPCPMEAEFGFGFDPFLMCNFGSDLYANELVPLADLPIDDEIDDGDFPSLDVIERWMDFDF

B1: MaEDS1 promoter GCC-box mutant probe (dsDNA)
DNA 1: CCAACTCCTCCTCTCTCTGGACAAAAAACACAAACTCGTCTTGAAAACTCCGCGACAAA
DNA 2: TTTGTCGCGGAGTTTTCAAGACGAGTTTGTGTTTTTTGTCCAGAGAGAGGAGGAGTTGG
With B1, the binding result is “no binding”.
